{"source": "the supplement of paper PMC10724198", "note": "± gives the standard deviation of the averaged measurements.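 Further: PSI is a weighted mean of sequencing reads over stability bins, variants kept only with over 10 reads, mCherry proximal and sfGFP distal, peptide attached via GGGS linker.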"}
{"system": "Saccharomyces cerevisiae", "assay": "protein stability index of tFT-peptide fusion (C-terminal peptide) (PSI (0-1 scale)); higher = more stable (slower turnover)", "details": "genetic background: wild type; temperature: 30 C"}
{"sequence": "PSPSPPPPLSPP", "protein stability index": "0.698 ± 0.045"}
{"sequence": "PSPSTAPPRDQG", "protein stability index": "0.724 ± 0.016"}
{"sequence": "PSPSTSLPPSPP", "protein stability index": "0.684 ± 0.042"}
{"sequence": "PSPSYAPARHQA", "protein stability index": "0.651 ± 0.063"}
{"sequence": "PSPTIPSPPPPP", "protein stability index": "0.615 ± 0.011"}
{"sequence": "PSPTLGPVSFPH", "protein stability index": "0.703 ± 0.014"}
{"sequence": "PSPYFHLFGTQS", "protein stability index": "0.77 ± 0.027"}
{"sequence": "PSQHVHTSPLYS", "protein stability index": "0.695 ± 0.022"}
{"sequence": "PSQPYPSSQYIL", "protein stability index": "0.73 ± 0.047"}
{"sequence": "PSQRHQRPHREP", "protein stability index": "0.657 ± 0.052"}
{"sequence": "PSRASGPYPRLS", "protein stability index": "0.701 ± 0.019"}
{"sequence": "PSRDPPAGPRAR", "protein stability index": "0.684 ± 0.048"}
{"sequence": "PSRLSLLWVNPP", "protein stability index": "0.8 ± 0.081"}
{"sequence": "PSRPRPRRRRQA", "protein stability index": "0.751 ± 0.073"}
{"sequence": "PSRRAPQSRPSQ", "protein stability index": "0.733 ± 0.098"}
{"sequence": "PSRRHGFRLILT", "protein stability index": "0.679 ± 0.019"}
{"sequence": "PSRRPLPHPPPP", "protein stability index": "0.654 ± 0.045"}
{"sequence": "PSRVPTPLPHFT", "protein stability index": "0.737 ± 0.049"}
{"sequence": "PSSCLPAHLRPP", "protein stability index": "0.605 ± 0.013"}
{"sequence": "PSSCSLLPLCLG", "protein stability index": "0.663 ± 0.065"}
{"sequence": "PSSHHGNQTTRK", "protein stability index": "0.826 ± 0.14"}
{"sequence": "PSSLPSTPPSPP", "protein stability index": "0.745 ± 0.019"}
{"sequence": "PSSPLPLSVPPL", "protein stability index": "0.655 ± 0.11"}
{"sequence": "PSSPPAPLAPHS", "protein stability index": "0.731 ± 0.067"}
{"sequence": "PSSPPLPLPALP", "protein stability index": "0.723 ± 0.04"}
{"sequence": "PSSRFLFFCSFF", "protein stability index": "0.677 ± 0.033"}
{"sequence": "PSSSLAPPPGRL", "protein stability index": "0.572 ± 0.038"}
{"sequence": "PSTDARRQRLRR", "protein stability index": "0.721 ± 0.049"}
{"sequence": "PSTLLPSLRFPP", "protein stability index": "0.654 ± 0.056"}
{"sequence": "PSTPPGPPPASH", "protein stability index": "0.758 ± 0.011"}
{"sequence": "PSTPSPSCAPPS", "protein stability index": "0.7087 ± 0.0017"}
{"sequence": "PSTSCQRLLTLT", "protein stability index": "0.639 ± 0.018"}
{"sequence": "PSTVSPFRPPIT", "protein stability index": "0.711 ± 0.039"}
{"sequence": "PSVLPPPSPASY", "protein stability index": "0.668 ± 0.094"}
{"sequence": "PTFVQGVVLGRG", "protein stability index": "0.702 ± 0.086"}
{"sequence": "PTLPACFCPPAP", "protein stability index": "0.639 ± 0.097"}
{"sequence": "PTLSSPHPPNNY", "protein stability index": "0.689 ± 0.021"}
{"sequence": "PTMGRRPGRGGA", "protein stability index": "0.6987 ± 0.00073"}
{"sequence": "PTPPPALPPPPL", "protein stability index": "0.6994 ± 0.0054"}
{"sequence": "PTPPPQPTPHTP", "protein stability index": "0.705 ± 0.035"}
{"sequence": "PTPPPRPPLSPP", "protein stability index": "0.692 ± 0.046"}
{"sequence": "PTPPRPGPIITF", "protein stability index": "0.699 ± 0.031"}
{"sequence": "PTPTAPEPIHPS", "protein stability index": "0.61 ± 0.0025"}
{"sequence": "PTPTNLLPPRKY", "protein stability index": "0.6504 ± 0.0044"}
{"sequence": "PTRPAMILPNRY", "protein stability index": "0.698 ± 0.049"}
{"sequence": "PTRPPRPRAGPR", "protein stability index": "0.742 ± 0.0077"}
{"sequence": "PTSFAPSPPLPR", "protein stability index": "0.741 ± 0.025"}
{"sequence": "PTTLTTPTPPHR", "protein stability index": "0.7161 ± 0.0022"}
{"sequence": "PTYTPAFPPVSS", "protein stability index": "0.699 ± 0.018"}
{"sequence": "PVDGGAGPEVKG", "protein stability index": "0.641 ± 0.1"}
{"sequence": "PVETVRCCLACP", "protein stability index": "0.64643 ± 0.00047"}
{"sequence": "PVFPPTPLSPRP", "protein stability index": "0.571 ± 0.077"}
{"sequence": "PVGDWPRGKGAD", "protein stability index": "0.684 ± 0.13"}
{"sequence": "PVLYPPPPFPPY", "protein stability index": "0.747 ± 0.0095"}
{"sequence": "PVPIPCPIPPPT", "protein stability index": "0.703 ± 0.0062"}
{"sequence": "PVPLLPLSFSLL", "protein stability index": "0.736 ± 0.064"}
{"sequence": "PVPNPPPAPRSS", "protein stability index": "0.698 ± 0.062"}
{"sequence": "PVPPPPCPPLPP", "protein stability index": "0.683 ± 0.024"}
{"sequence": "PVPRNRQRWREP", "protein stability index": "0.663 ± 0.017"}
{"sequence": "PVPRVPLYFPLV", "protein stability index": "0.675 ± 0.017"}
{"sequence": "PVRLGAGGGCRP", "protein stability index": "0.693 ± 0.02"}
{"sequence": "PVRSPPPLPSPP", "protein stability index": "0.653 ± 0.037"}
{"sequence": "PVSSFQHSLPWL", "protein stability index": "0.708 ± 0.03"}
{"sequence": "PVSSLHFPLPGF", "protein stability index": "0.677 ± 0.027"}
{"sequence": "PVSSPLVFLLSI", "protein stability index": "0.625 ± 0.045"}
{"sequence": "PVSTINLNIQST", "protein stability index": "0.836 ± 0.087"}
{"sequence": "PVTMWAGGKYYV", "protein stability index": "0.718 ± 0.088"}
{"sequence": "PVWLLASSLADL", "protein stability index": "0.722 ± 0.039"}
{"sequence": "PYSLRSTASSFP", "protein stability index": "0.63 ± 0.12"}
{"sequence": "PYSPPAHLLSLL", "protein stability index": "0.878 ± 0.061"}
{"sequence": "QASFPRPSGRAS", "protein stability index": "0.7026 ± 0.0054"}
{"sequence": "QAVPRAAHLHPL", "protein stability index": "0.66 ± 0.11"}
{"sequence": "QCAPVFIAVCRL", "protein stability index": "0.681 ± 0.14"}
{"sequence": "QCIQQNVSSSRA", "protein stability index": "0.646 ± 0.014"}
{"sequence": "QCLFPVAYYLTP", "protein stability index": "0.657 ± 0.0097"}
{"sequence": "QDHIGSTEGYKH", "protein stability index": "0.663 ± 0.074"}
{"sequence": "QDSANLSPSFPF", "protein stability index": "0.724 ± 0.048"}
{"sequence": "QEESRARKGTQT", "protein stability index": "0.627 ± 0.034"}
{"sequence": "QEKKKVNKKENK", "protein stability index": "0.737 ± 0.045"}
{"sequence": "QEKSLSHTQRYR", "protein stability index": "0.762 ± 0.072"}
{"sequence": "QFERSVFLANAL", "protein stability index": "0.679 ± 0.023"}
{"sequence": "QFRRKGMITECK", "protein stability index": "0.7161 ± 0.0029"}
{"sequence": "QFSPPLSLAPLP", "protein stability index": "0.783 ± 0.05"}
{"sequence": "QFSRSFHSLPPT", "protein stability index": "0.683 ± 0.022"}
{"sequence": "QFWVICTRGSEN", "protein stability index": "0.694 ± 0.029"}
{"sequence": "QGGGGGGRSGWR", "protein stability index": "0.6854 ± 0.0061"}
{"sequence": "QGRCHSRARMTP", "protein stability index": "0.731 ± 0.046"}
{"sequence": "QGSWLRSVNLEY", "protein stability index": "0.617 ± 0.092"}
{"sequence": "QGTCSQSIEAHF", "protein stability index": "0.706 ± 0.14"}
{"sequence": "QHIKNARKKKGE", "protein stability index": "0.657 ± 0.0073"}
{"sequence": "QIEQQKHKQPLI", "protein stability index": "0.6859 ± 0.0024"}
{"sequence": "QIPEYGGQGVNV", "protein stability index": "0.6935 ± 0.0047"}
{"sequence": "QIYKISKKKKQK", "protein stability index": "0.676 ± 0.055"}
{"sequence": "QIYRMKNRYNKS", "protein stability index": "0.7 ± 0.038"}
{"sequence": "QKATRHRTRPRR", "protein stability index": "0.688 ± 0.12"}
{"sequence": "QKEGGRENETRT", "protein stability index": "0.6906 ± 0.0053"}
{"sequence": "QKHGARISSQKK", "protein stability index": "0.703 ± 0.012"}
{"sequence": "QKKIKKPKSKKH", "protein stability index": "0.736 ± 0.031"}
{"sequence": "QKKKKTTVKKRQ", "protein stability index": "0.671 ± 0.021"}
{"sequence": "QKKPEMLNKKSY", "protein stability index": "0.639 ± 0.015"}
{"sequence": "QKKQKIKYRSKN", "protein stability index": "0.714 ± 0.053"}
